For one data set, the target named is p53 (wild type) (UniProt P02340). Nature of the data set: cell_activity.
Data set [1] addresses p53as (alternatively spliced p53) (Mus musculus) (UniProt P02340). Nature of the data set: cell_activity.
Setting [2] is: luciferase reporter, mouse (10)1 cells.
[3] abbreviates: CAT reporter, human Saos-2 cells.

For the substance WAF-1 promoter (WWP-1 luciferase), the activity with p53 (wild type) (setting [2]) was determined as 15 fold; in data set [1] (setting [2]), 14 fold.
In the case of “PG13 CAT reporter, 13 repeats of p53-binding site”, the activity was 14 fold in the data set with p53 (wild type) (setting [3]) and 9 fold in data set [1] (setting [3]).
